# Test results: patent US20180044415A1 (AbbVie / Abbott, published 2018)
# Where a chain is given by its changes, count along the chain named.
# T1: human DLL3 (immobilized human DLL3 or h293-hDLL3 cells) (human, UniProt Q9NYJ7 27-492, limits assumed)
# T1 construct: the sentence says 'immobilized human DLL3 or h293-hDLL3 cells'
# T1 sequence: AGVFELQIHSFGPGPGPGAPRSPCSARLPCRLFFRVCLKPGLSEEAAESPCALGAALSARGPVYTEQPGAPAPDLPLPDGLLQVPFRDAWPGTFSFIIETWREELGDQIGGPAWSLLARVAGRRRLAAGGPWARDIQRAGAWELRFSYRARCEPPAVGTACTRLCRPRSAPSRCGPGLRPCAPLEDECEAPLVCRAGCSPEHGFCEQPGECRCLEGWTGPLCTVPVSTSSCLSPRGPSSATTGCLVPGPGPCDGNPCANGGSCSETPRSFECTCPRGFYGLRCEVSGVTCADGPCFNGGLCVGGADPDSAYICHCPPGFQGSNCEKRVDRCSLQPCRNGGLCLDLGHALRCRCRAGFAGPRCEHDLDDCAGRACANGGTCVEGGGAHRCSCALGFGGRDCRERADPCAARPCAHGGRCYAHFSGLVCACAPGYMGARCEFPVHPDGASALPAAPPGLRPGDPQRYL
# B1: SC16.103 (antibody, V domains shown)
# VH: QVTLKESGPGILKPSQTLSLTCSFSGFSLSTSGMGIGWIRQPSGKGLEWLAHIWWDDDKYYNPSLKSQLTISKDSSRNQVFLKITSVDTADTATYYCARRGTAYYFDYWGQGTTLTVSS
# VL: DIVLTQSPASLAVSLGQRATISCRASKSVSTSGYSYMHWYQQKPGQPPKLLIYLASNLESGVPARFSGSGSGTDFTLNIHPVEEEDAATYYCQHSRELPLTFGAGTKLELK
# notes: murine mAb; variable regions only
# B2: SC16.88 (antibody, V domains shown)
# VH: QVQLQQSGAELARPGASVKLSCKASGYTCTSYWMQWVKQRPGQGLEWIGAIYPGDGDTRYTQKFKGKATLTADKSSSTAYMQLSSLASEDSAVYYCARGRRTEAWFAYWGQGTLVTVSA
# VL: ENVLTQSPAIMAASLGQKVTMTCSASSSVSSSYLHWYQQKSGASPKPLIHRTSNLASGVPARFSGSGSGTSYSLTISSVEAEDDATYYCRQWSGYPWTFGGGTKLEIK
# notes: as for B1
# B3: SC16.72 (antibody, V domains shown)
# VH: EVQLQQSGPELVKPGASVKMSCKASGYTFTSYVMHWVKQKPGQGLEWIGYINPYNDGTKYNEKFKGKATLTSDKSSSTAYMELSSLTSEDSAVYYCARLRSRAMDYWGQGTSVTVSS
# VL: ENVLTQSPAIMSASLGEKVTMSCRASSSVNYMSWYQQKSDASPKLWIYYTSNLAPGVPARFSGSGSGNSYSLTISSMEGEDAATYYCQQFTSSPYTFGGGTKLEIK
# notes: as for B1
# B4: SC16.81 (antibody, V domains shown)
# VH: QVQLKESGPVLVAPSQSLSITCTVSGFSLTSYGVHWVRQPPGKGLEWLGVIWAGGSTNYNSALMSRLSISKDNSKSQVFLKMNSLQTDDTAMYYCAKQGNFYAMDYWGQGTSVTVSS
# VL: QIVLTQSPAIMSASLGERVTLTCTASSSVSSSYLHWYQQKPGSSPKLWIYSTSNLASGVPTRFSGSGSGTSYSLRISSMEAEDAATYYCHQYNRSPLTFGAGTKLELK
# notes: as for B1
# B5: SC16.101 (antibody, V domains shown)
# VL: B4 VL with L21M, T61A, G67E, R75T, S78N, N93H, L97F, A101S, L107I
# V domain: QVTLKESGPGILQPSQTLSLTCSFSGFSLSTSGMGVGWIRQPSGKGLEWLAHIWWDDVKRYNPALKSRLTISKDASSSQVFLKIASVDTAETATYYCAHILDRAYYFDYWGQGTTLTVTS
# notes: as for B1
# B6: SC16.84 (antibody, V domains shown)
# VH: EVQLQQSGPELVKPGASMKISCKASGYSFTGYTMNWVKQSHGKNLEWIGLINPYNGGTTYNQKFKGKATLTVDKSSSTAYMELLSLTSEDSAVYYCALGYYGNYRRYFDVWGAGTTVTVSS
# VL: DIQMTQSPSSLSASLGGKVTITCKASQDIKKYIAWYQHKPGKGPRLLIHYTSTLEPGIPSRFSGSGSGRDYSFSISNLEPEDIATYYCLQYDILWTFGGGTKLEIK
# notes: as for B1
# B7: SC16.78 (antibody, V domains shown)
# VH: EVKLVESGGGLVKPGGSLKLSCAASGFTFGRYVMSWVRQTPEKKLEWVASITSGGTTYYPDSVKGRFTISRDNARNILYLQMSSLRSEDTAMYYCARVYYHYDDIFAYWGQGTLVTVSA
# VL: DIKMTQSPSSMYASLGERVTITCKASQDINSYLSWFQQKPGRSPKTLIYRANRLVDGVPSRFSGSGSGQDYSLTISSLDYEDMGIYYCLQYDEFPFTFGSGTKLEIK
# notes: as for B1
# B8: SC16.106 (antibody, V domains shown)
# VH: QVQLKQSGPGLVAPSQSLFITCTVSGFSLTSYEINWVRQPPGKGLEWLGVIWTGGSTNYNSALISRLSISKDNSKSLVFLKMNSLQTDDTAIYYCVRGVYAMDYWGQGTSVTVSS
# VL: B7 VL with R42K, D79E
# notes: as for B1
# B9: SC16.67 (antibody, V domains shown)
# VH: EVQLVETGGGLVQPKGSLKLSCAVSAFTFTTYAMNWVRQAPGKGLEWVARIRNKSNNYATYYADSVKDRFTISRDDSQSMLYLQMNNLKIEDTAMYYCVFYYDYVYWGQGTLVTVSA
# VL: QAVVTQESALTTSPGETVTLTCRSSTGAVTTSNYANWIQEKPDHLFTGLIGGTNNRAPGVPARFSGSLIGDKAALTITGAQTEDEAIYFCGLWYSNHLVFGGGTKLTVL
# notes: as for B1
# B10: SC16.107 (antibody, V domains shown)
# VH: EVQLQQSGPELVKPGASVKMSCKASGYTFTNYVMHWVKQKPGQGLEWIGYINPYNDGTKYNEKFKGKATLTSDKSSTTAYMALSSLTSEDSAVYYCAVAYYSNWGFAYWGQGTLVTVSA
# VL: DIVMTQSHKFMSTSVGDRVSITCKASQDVNTAVGWYQQKPGQSPKLLIYSASYRYTGVPDRFTGSGSGTDFTFTISSVQAEDLAVYYCQQHYSSPYTFGGGTKVEIK
# notes: as for B1
# B11: SC16.104 (antibody, V domains shown)
# VH: QVQLKESGPDLVQPSQTLSLTCTVSGFSLTFYGVHWVRQPPGKGLEWVGTMGWDDKKYYNSALKSRLSISRDTSKNQVFLKLSSLQTEDTAMYYCTRGGTGFDYWGQGTTLTVSS
# VL: QIVLSQSPAILSASPGEKVTMTCRASSSVSYIHWYRQKPGSSPKPWIYATSNLASGVPARFSGSGSGTSYSLTISRVEAEDAATYYCQQWSSNPPTFGAGTKLELK
# notes: as for B1
# B12: SC16.80 (antibody, V domains shown)
# VH: EVQLQQSGPELVKPGGSKKISCKASGYSFTGYSMNWVKQSHGKNLEWIGLINPYSGGTIYNQKFKGKATLTVDKSSSTAYMELLSLTSEDSAVYYCARRSDYPLVYWGQGTLVTVSA
# VL: ETTVTQSPASLSMAIGEKVTIRCITSTDIDDDMIWYQQKPGEPPKLLISEGNTLRPGVPSRFSSSGYGTDFVFTIENMLSEDVADYYCLKRDDLPYTFGGGTQVEIK
# notes: as for B1
# B13: SC16.65 (antibody, V domains shown)
# VH: QVTLKESGPGILQPSQTLSLTCSFSGFSLSTSGMGVGWIRQPSGKGLEWLALIWWDDVKRYNPALKSRLTISKDASSSQVFLKIASVDTADTATYYCARIASYDYDVVYAMDYWGQGTSVSVSS
# VL: QIVLTQSPALMSASPGEKVTMTCSVTSSVSYMYWYQQKPRSSPKPWIYLTSNLASGVPARFSGSGSGTSYSLTISSVEAEDAATYYCQQWRNNPFTFGSGTKVEIK
# notes: as for B1
# B14: SC16.73 (antibody, V domains shown)
# VH: QVQLQQSGAELMKPGASVKISCKANGYTFSSYWIEWLRQRPGHGLEWIGEILPGSDNSNYNEKFKGKATFTADTSSNTAYMQLSSLTSEESAVYYCTRGLRRDGSYYYVMEHWGQGTSVTVSS
# VL: DIQMTQSPSSLSASLGERVSLTCRASQDIGYSLNWLQQEPDGTIKRLIYATSSLDSGVPKRFSGSRSGSDYSLTISSLESEDFVDYYCLQYASSPWTFGGGTKLEIK
# notes: as for B1
# B15: SC16.105 (antibody, V domains shown)
# VH: QVQLQQPGAELVKPGASVKLSCKASGYTFTSYWMHWVKQRPGQGLEWIGVINPSNGRTNYNEKFKSKATLTVDKSSSTAYMQLSSLTSEDSAVYYCARRRELGTLYAMDYWGQGTSVTVSS
# VL: DIVMTQSHKFMSTSVGDRVSITCKASQDVGTAVAWYQQKPGQSPKLLIYWASIRHTGVPDRFTGSGSGTDFTLTISNVQSEDLADYFCQQYSSYPLTFGAGTKLELK
# notes: as for B1
# B16: SC16.79 (antibody, V domains shown)
# VH: EVQLQQSGPELVKPGASVKISCKTSGYTFTEYTMHWVKQSHGKSLEWIGGINPNNGGTSYNQKFKGKATLTVDKSSSTAYMELRSLTSEDSAVYYCARGPAWFAYWGQGTLVTVSA
# VL: DIVMSQSPSSLAVSAGEKVTMSCKSSQSLLNSRTRKNYLAWYQQKPGQSPKLLIYWASTRESGVPDRFTGSGSGTDFTLTISSVQAEDLAVYYCKQSYNLYTFGGGTKLKIK
# notes: as for B1
# Biological target: T1, human DLL3 (immobilized human DLL3 or …)
# Assay: hybridoma screening on immobilized human DLL3 or on h293-hDLL3 cells
row,binding result,Binder
1,binds,B1
2,binds,B2
3,binds,B3
4,binds,B4
5,binds,B5
6,binds,B6
7,binds,B7
8,binds,B8
9,binds,B9
10,binds,B10
11,binds,B11
12,binds,B12
13,binds,B13
14,binds,B14
15,binds,B15
16,binds,B16
